Data on 26 proteins can be found in patent US20210230570.

One may read the KM as the substrate concentration at which the rate is half of its maximum. A word on the kcat/KM: it is the turnover number divided by the Michaelis constant.

The chains are these.
B1: FIXa-R318Y/R403E/E410N (protein)
chain 1: YNSGKLEEFVQGNLERECMEEKCSFEEAREVFENTERTTEFWKQYVDGDQCESNPCLNGGSCKDDINSYECWCPFGFEGKNCELDVTCNIKNGRCEQFCKNSADNKVVCSCTEGYRLAENQKSCEPAVPFPCGRVSVSQTSKLTR
chain 2: VVGGEDAKPGQFPWQVVLNGKVDAFCGGSIVNEKWIVTAAHCVETGVKITVVAGEHNIEETEHTEQKRNVIRIIPHHNYNAAINKYNHDIALLELDEPLVLNSYVTPICIADKEYTNIFLKFGSGYVSGWGRVFHKGYSALVLQYLRVPLVDRATCLRSTKFTIYNNMFCAGFHEGGRDSCQGDSGGPHVTEVEGTSFLTGIISWGEECAMKGKYGIYTKVSEYVNWIKNKTKLT
B2: FIXa-R318Y/R338E/T412A (protein)
chain 1: B1 chain 1
chain 2: B1 chain 2 with R158E, E223R, N230E, T232A
B3: FIXa-Y155F/R318Y/R338E/E410N (protein)
chain 1: B1 chain 1
chain 2: B1 chain 2 with R158E, E223R
B4: FIXa-N260S/R318Y/R338E/R403E/E410N (protein)
chain 1: B1 chain 1
chain 2: B1 chain 2 with N80S, R158E
B5: FIXa-D203N/F205T/R338E (protein)
chain 1: B1 chain 1
chain 2: B1 chain 2 with D23N, F25T, Y138R, R158E, E223R, N230E
B6: FIXa-D203N/F205T/E410N (protein)
chain 1: B1 chain 1
chain 2: B1 chain 2 with D23N, F25T, Y138R, E223R
B7: FIXa-K228N/R338E/R403E (protein)
chain 1: B1 chain 1
chain 2: B1 chain 2 with K48N, Y138R, R158E, N230E
B8: FIXa-R318Y/R338E/E410N/T412V (protein)
chain 1: B1 chain 1
chain 2: B1 chain 2 with R158E, E223R, T232V
B9: FIXa-D203N/F205T/R318Y (protein)
chain 1: B1 chain 1
chain 2: B1 chain 2 with D23N, F25T, E223R, N230E
B10: FIXa-D104N/K106S/N260S/R318Y/R338E/R403E/E410N (protein)
chain 1: B1 chain 1 with D104N, K106S
chain 2: B1 chain 2 with N80S, R158E
B11: FIXa-D203N/F205T/R338E/R403E (protein)
chain 1: B1 chain 1
chain 2: B1 chain 2 with D23N, F25T, Y138R, R158E, N230E
B12: FIXa-R318Y/R338E/N346D/R403E/E410N (protein)
chain 1: B1 chain 1
chain 2: B1 chain 2 with R158E, N166D
B13: FIXa-D203N/F205T/K228N (protein)
chain 1: B1 chain 1
chain 2: B1 chain 2 with D23N, F25T, K48N, Y138R, E223R, N230E
B14: FIXa-D203N/F205T/R338A (protein)
chain 1: B1 chain 1
chain 2: B1 chain 2 with D23N, F25T, Y138R, R158A, E223R, N230E
B15: FIXa-D104N/K106S/R318Y/R338E/E410N (protein)
chain 1: B1 chain 1 with D104N, K106S
chain 2: B1 chain 2 with R158E, E223R
B16: FIXa-R318Y/R338E/R403E (protein)
chain 1: B1 chain 1
chain 2: B1 chain 2 with R158E, N230E
B17: FIXa-Y155F/N260S/R318Y/R338E/R403E/E410N (protein)
chain 1: B1 chain 1
chain 2: B1 chain 2 with N80S, R158E
B18: FIXa-K228N/R318Y/E410N (protein)
chain 1: B1 chain 1
chain 2: B1 chain 2 with K48N, E223R
B19: FIXa-Y259F/K265T/Y345T (protein)
chain 1: B1 chain 1
chain 2: B1 chain 2 with Y79F, K85T, Y138R, Y165T, E223R, N230E
B20: FIXa-Y155F/K228N/K247N/N249S (protein)
chain 1: B1 chain 1
chain 2: B1 chain 2 with K48N, K67N, N69S, Y138R, E223R, N230E
B21: FIXa-K228N/R318Y/R338E/R403E/E410N (protein)
chain 1: B1 chain 1
chain 2: B1 chain 2 with K48N, R158E
B22: FIXa-D104N/K106S/Y155F/K228N/K247N/N249S (protein)
chain 1: B1 chain 1 with D104N, K106S
chain 2: B1 chain 2 with K48N, K67N, N69S, Y138R, E223R, N230E
B23: FIXa-R318Y/R338E/E410S (protein)
chain 1: B1 chain 1
chain 2: B1 chain 2 with R158E, E223R, N230S
B24: FIXa-D104N/K106S/K228N/K247N/N249S (protein)
chain 1: B1 chain 1 with D104N, K106S
chain 2: B1 chain 2 with K48N, K67N, N69S, Y138R, E223R, N230E
B25: FIXa-D104N/K106S/I251S/R318Y/R338E/E410N (protein)
chain 1: B1 chain 1 with D104N, K106S
chain 2: B1 chain 2 with I71S, R158E, E223R
B26: FIXa-R318Y/R338E/R403E/T412A (protein)
chain 1: B1 chain 1
chain 2: B1 chain 2 with R158E, N230E, T232A

Numbering of substitutions follows the chain as printed. Names may count otherwise.

Sequence of Factor X, P00742 (P00742 whole entry, looked up): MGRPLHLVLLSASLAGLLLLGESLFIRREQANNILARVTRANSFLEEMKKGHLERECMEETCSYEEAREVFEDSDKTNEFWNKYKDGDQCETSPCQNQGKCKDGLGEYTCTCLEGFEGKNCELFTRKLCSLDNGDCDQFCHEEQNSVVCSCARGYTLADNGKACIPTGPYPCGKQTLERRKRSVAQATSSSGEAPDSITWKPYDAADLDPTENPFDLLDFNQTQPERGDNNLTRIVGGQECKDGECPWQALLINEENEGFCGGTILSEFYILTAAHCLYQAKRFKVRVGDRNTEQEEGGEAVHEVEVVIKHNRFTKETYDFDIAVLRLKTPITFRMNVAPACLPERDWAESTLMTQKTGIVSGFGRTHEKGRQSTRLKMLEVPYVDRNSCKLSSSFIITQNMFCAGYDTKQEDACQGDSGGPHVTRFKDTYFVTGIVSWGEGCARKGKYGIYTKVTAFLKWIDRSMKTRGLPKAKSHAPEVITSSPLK

In one series the target is Factor X (FX), P00742.
Sequence of Factor X (FX), P00742 (P00742 whole entry, looked up): as above
Turning to B1, the kcat/KM (M^-1s^-1), FX activation by FIXa in the Xase complex was 2.5e+07 M⁻¹ s⁻¹.
Turning to B2, the kcat of FX activation by FIXa in the Xase complex (FVIIIa, PC/PS vesicles, Ca2+) came out at 7 s⁻¹.
B3: the kcat/KM (M^-1s^-1), FX activation by FIXa in the Xase complex was 3.7e+08 M⁻¹ s⁻¹.
As to B4, the KM (nM); Catalytic activity of FIXa variants (KM) worked out at 72.4 nM and the kcat of FX activation by FIXa in the Xase complex (FVIIIa, PC/PS vesicles, Ca2+) was 3.8 s⁻¹.
For the protein B5, the kcat/KM for FX activation (Xase assay with FVIIIa, PC/PS vesicles, Ca2+) turned out to be 1e+08 M⁻¹ s⁻¹.
On the same count and under the same terms, for B6 the value was 4.2e+07 M⁻¹ s⁻¹; for B7, 4.8e+07 M⁻¹ s⁻¹.
Consider B8, for which the KM amounted to 0.0236 µM; the KM (nM); Catalytic activity of FIXa variants (KM) is 29.7 nM; the kcat of FX activation by FIXa in the Xase complex (FVIIIa, PC/PS vesicles, Ca2+) stood at 5.2 s⁻¹; the kcat/KM is 2.4e+08 M⁻¹ s⁻¹.
For the protein B9, the kcat/KM for FX activation (Xase assay with FVIIIa, PC/PS vesicles, Ca2+) was 2e+07 M⁻¹ s⁻¹.
Regarding B10, the KM (nM); Catalytic activity of FIXa variants (KM) was found to be 61.1 nM and the kcat of FX activation by FIXa in the Xase complex (FVIIIa, PC/PS vesicles, Ca2+) stood at 5.4 s⁻¹.
With B11, the kcat/KM for FX activation (Xase assay with FVIIIa, PC/PS vesicles, Ca2+) amounted to 1.9e+07 M⁻¹ s⁻¹.
In the case of B12, the KM (nM); Catalytic activity of FIXa variants (KM) amounted to 77.7 nM and the kcat of FX activation by FIXa in the Xase complex (FVIIIa, PC/PS vesicles, Ca2+) turned out to be 2.5 s⁻¹.
As to B13, the kcat/KM for FX activation (Xase assay with FVIIIa, PC/PS vesicles, Ca2+) was determined as 1.4e+07 M⁻¹ s⁻¹.
Consider B14, for which the kcat/KM for FX activation (Xase assay with FVIIIa, PC/PS vesicles, Ca2+) was found to be 6.2e+07 M⁻¹ s⁻¹.
Consider B15, for which the kcat/KM (M^-1s^-1), FX activation by FIXa in the Xase complex is 2.6e+08 M⁻¹ s⁻¹.
In the case of B16, the kcat/KM for FX activation (Xase assay with FVIIIa, PC/PS vesicles, Ca2+) is 6.5e+07 M⁻¹ s⁻¹.
In the case of B17, the KM (nM); Catalytic activity of FIXa variants (KM) stood at 83.9 nM and the kcat of FX activation by FIXa in the Xase complex (FVIIIa, PC/PS vesicles, Ca2+) stood at 5.8 s⁻¹.
As to B18, the kcat/KM (M^-1s^-1), FX activation by FIXa in the Xase complex was found to be 1.2e+08 M⁻¹ s⁻¹.

The next series has as its target Factor X, P00742.
On to B19, for which the kcat of FX activation by FIXa (Xase complex with FVIIIa, PC/PS vesicles, Ca2+) is 1.7 s⁻¹.
Turning to B1, the KM (Catalytic activity of FIXa variants) came out at 0.0883 µM.
Still for that read-out and setting: for B3 the value was 0.016 µM.
On to B5, for which the “% of WT (kcat/KM)” value was found to be 228%, the KM (Catalytic activity of FIXa variants) came to 0.0241 µM and the catalytic efficiency (kcat/KM) worked out at 1e+08 M⁻¹ s⁻¹.
For B6 the same measures were 91%, 0.0455 µM and 4.2e+07 M⁻¹ s⁻¹.
Consider B7, for which the “% of WT (kcat/KM)” value came out at 105% and the KM (Catalytic activity of FIXa variants) is 0.0592 µM.
In the case of B9, the “% of WT (kcat/KM)” value is recorded as 44%, the KM (Catalytic activity of FIXa variants) is 0.0475 µM and the kcat/KM amounted to 2e+07 M⁻¹ s⁻¹.
As to B11, the “% of WT (kcat/KM)” value worked out at 41%, the KM (Catalytic activity of FIXa variants) turned out to be 0.0511 µM and the kcat/KM is 1.9e+07 M⁻¹ s⁻¹.
Regarding B13, the “% of WT (kcat/KM)” value is 30%, the KM (Catalytic activity of FIXa variants) turned out to be 0.0399 µM and the kcat/KM amounted to 1.4e+07 M⁻¹ s⁻¹.
With B14, the “% of WT (kcat/KM)” value was determined as 135%, the KM (Catalytic activity of FIXa variants) was determined as 0.0385 µM and the kcat/KM was 6.2e+07 M⁻¹ s⁻¹.
Turning to B15, the KM (Catalytic activity of FIXa variants) is 0.0189 µM.
B16: the “% of WT (kcat/KM)” value was found to be 134%, the KM (Catalytic activity of FIXa variants) came to 0.0537 µM and the kcat/KM came out at 6.2e+07 M⁻¹ s⁻¹.
Consider B18, for which the KM (Catalytic activity of FIXa variants) is 0.042 µM.

Another series addresses antithrombin III (plasma purified human AT-III), in complex with unfractionated heparin.
With B1, the K0.5 is 7070 nM and the K0.5-mut/K0.5-wt was determined as 366.
B3 showed a K0.5 of 1100 nM and a K0.5-mut/K0.5-wt of 56.8.
The like results for B5 were, in that order, 1170 nM and 60.5.
The like results for B6 were, in that order, 377 nM and 19.5.
For B7 the same measures were 1680 nM and 86.8.
As to B9, the K0.5 amounted to 7230 nM and the K0.5-mut/K0.5-wt is 374.
For B11 the same measures were 1520 nM and 78.6.
For B13 the same measures were 822 nM and 42.5.
B14 had a K0.5 of 423 nM and a K0.5-mut/K0.5-wt of 21.9.
In the case of B15, the K0.5 is 6330 nM and the K0.5-mut/K0.5-wt amounted to 327.
The like results for B16 were, in that order, > 10000 nM and > 517.
For B18 the same measures were 475 nM and 24.6.

The target of the next series is plasma purified human AT-III (antithrombin III), in complex with full-length unfractionated heparin (AT-III/UFH).
Take B19: the K0.5-mut/K0.5-wt (against Catalyst Biosciences WT FIXa) amounted to 0.3.
The same measure, in the same setting: the value for B20 was 1.4; that for B21 was > 517; that for B22 was 1.6.
Protein B2 had a K0.5-mut/K0.5-wt (against Catalyst Biosciences WT FIXa) of 396.
Still for that read-out and setting: for B4 the value was > 517; for B23, 279.
Same read-out and setting: for B24 the value was 2.1.
On the same count and under the same terms, for B8 the value was > 517; for B10, > 517; for B25, 464.
For B12, the K0.5-mut/K0.5-wt (against Catalyst Biosciences WT FIXa) was > 517.
Consider B26, for which the K0.5-mut/K0.5-wt (against Catalyst Biosciences WT FIXa) was > 517.
Same read-out and setting: the value for B17 was 501.
